B1: AtGH3-17: GH3 protein, accession Q9FZ87 (protein, listed as Arabidopsis thaliana)
chain: MIPSYDPNDTEAGLKLLEDLTTNAEAIQQQVLHQILSQNSGTQYLRAFLDGEADKNQQSFKNKVPVVNYDDVKPFIQRIADGESSDIVSAQPITELLTSSGTSAGKPKLMPSTAEELERKTFFYSMLVPIMNKYVDGLDEGKGMYLLFIKPEIKTPSGLMARPVLTSYYKSQHFRNRPFNKYNVYTSPDQTILCQDSKQSMYCQLLCGLVQRSHVLRVGAVFASAFLRAVKFLEDHYKELCADIRTGTVTSWITDSSCRDSVLSILNGPNQELADEIESECAEKSWEGILRRIWPKAKYVEVIVTGSMAQYIPTLEFYSGGLPLVSTMYASSECYFGINLNPLCDPADVSYTLLPNMAYFEFLPVDDKSHEEIHFATHSNTDDDDDALKEDLIVNLVNVEVGQYYEIVITTFTGLYRYRVGDILKVTGFHNKAPQFRFVQRRNVVLSIDTDKTSEEDLLNAVTQAKLNHLQHPSSLLLTEYTSYADTSSIPGHYVLFWELKPRHSNDPPKLDDKTMEDCCSEVEDCLDYVYRRCRNRDKSIGPLEIRVVSLGTFDSLMDFCVSQGSSLNQYKTPRCVKSGGALEILDSRVIGRFFSKRVPQWEPLGLDS
B2: AtGH3-3: GH3 protein, accession O22190 (protein, listed as Arabidopsis thaliana)
chain: MTVDSALRSPMMHSPSTKDVKALRFIEEMTRNVDFVQKKVIREILSRNSDTEYLKRFGLKGFTDRKTFKTKVPVVIYDDLKPEIQRIANGDRSMILSSYPITEFLTSSGTSAGERKLMPTIDEDMDRRQLLYSLLMPVMNLYVPGLDKGKALYFLFVKTESKTPGGLPARPVLTSYYKSEQFKRRPNDPYNVYTSPNEAILCPDSSQSMYTQMLCGLLMRHEVLRLGAVFASGLLRAIGFLQTNWKELADDISTGTLSSRISDPAIKESMSKILTKPDQELADFITSVCGQDNSWEGIITKIWPNTKYLDVIVTGAMAQYIPMLEYYSGGLPMACTMYASSESYFGINLKPMCKPSEVSYTIMPNMAYFEFLPHHEVPTEKSELVELADVEVGKEYELVITTYAGLNRYRVGDILQVTGFYNSAPQFKFVRRKNVLLSIESDKTDEAELQSAVENASLLLGEQGTRVIEYTSYAETKTIPGHYVIYWELLVKDQTNPPNDEVMARCCLEMEESLNSVYRQSRVADKSIGPLEIRVVKNGTFEELMDYAISRGASINQYKVPRCVSFTPIMELLDSRVVSTHFSPALPHWSPERRR
B3: SmXP_002981880: GH3 protein, accession XP_002981880 (protein, listed as Selaginella moellendorffii)
chain: MAASAIAEFEDACKNAASIQEELLLGILRKNACCEYLQKYGSPLTVAAFKSQVPVIGYDDIRSDLERIAGGDRGQILCHDPITSFFTSSGTSSGKNKNIPATYENTVSVVKVLESSYAYKTNYFDLGKGRSVSLLYFKDLHATKSGLVFGPVTAHGIRSTRFRQVWRSSRTTPYEVLVAASDFRELTYCHLLCALLQRHEVEQVECMYAYSICEALRLFQNEYWEELCNDIRTASLSKTKVMDPKLRKAFERAGVFRSKCGNAMEADKIFKICSNESWSGILPLLFPKAKLVSAVVTGAMTHYVPTLSFYAGDQLPIVGQGFFSSEGGIGINIDPLSPPEDVIYTVTPRSLYYEFLPLGATEALSMHEVVIGELYEILVTNFAGLYRCRMGDVVQITSFFHGAPQMAYHHRKNAVMCINNETVDEQMLQNVVNKVSKDAGVEVLDFMIYGDPAAVPPSYTIFWELGNAKDYSKTQVLEQCCANVLKSFNPEHTRKGTDGLIDSFELVIVKKGTFERLMEEAVKNGASPAQYKTPRCVASSRILEALNSGRVHSYKSSAMSKVN
B4: OsGH3-10: GH3 protein, accession Q6ZLA7 (protein, listed as Oryza sativa)
chain: MAAKGISTIGAASRSLSSSLMAAAKEPDVENLRLIEELTSNVDAVQERVLAEILGRNADAEYLDKCGLDASDTDRATFRAKVPVASYDDLKPYVKRIANGDRSPILSTHPIIEFFTSSGTSAGERKLMPIVTDEMARREVLSSLATSVLNVYVPGLHTGKGLYFLFARSETKTPGGLTAQPALTSVYKSEHFKRAYAYTSPMAAILCEDASQSMYAQMLCGLCQRHDVLRVGAVFAAALVRAIRFLQLNWAQLAADIETGELNPRVTDPSDRECSRGDWTGIVTRLWPKTKCLNVVVTGVMAQYIPTLQYYSGGLPIVSGMYASSECFFGLNLRPLCGPSEVSYTIMPNTAYFEFLPVGEAVDASNLVELARVEDGREYEVVVTTYAGLNRYRVGDVLCVTGFHNAAPQFRFVRRQSVLLSIEADKTDEAELQRAVERASSALLRPRGASIVEYTSRACTERVPGHFSPALPHWTLAP
B5: SbEES16535: GH3 protein, accession EES16535 (protein)
chain: MAHTPAMENSYVQVHHLATSMAIHTHKPFLAPPKHVHLAFHSPTSAPSRLLATTRSRPGLSQPAAMMAETDADKLRFIEEVTADVAAVQERVLAEILSRNADAEYLSTRCGGATDRATFRAKVPMVTYEDLQPYILRIAHGDRSPILSGSGYPVSELLTSSGAGDRKLIPVVDDDHDRHHRLHSLVGAVVNQYVPGLDKGSGLYFLFVKSETTTPGGLPARTILTRIFTSDGVWKLPYNPRRGLTSPAAAVVCEDTFQSMYTQMLCGLCHRHSVLRVGAAFASGVLRAIRFFQRNWPQLAADIDAGTITDRVTDHVLRQALAGVLTQPDPDLARVVRSEGSKADDGADMAGIIARLWPNTKYVHAVATGSMAHYVPALNHYSGGLPIVSTAYFSSECSVGINLRPMCDPSEVSYTVMPNMAYFEFLPTDDDDATASATSQLVELAGVEVGREYELVVTTYSGLCRYRVGDVLRVTGFHNTAPQLRFVRRRNAVLSVESDKTDEVELQRAVDRASAALLRPLGAAVADYTARTCAETVPGHYVVYWELQLPLGAADVVVDGGDVLDRCCLEMEEALSSVYRQSRVADGTVGPLEIRVVRPGTFEELADHAVARGASVGQYKVPRCVTAPPDIELLDSRVVSNHFSPALPKWVPG
modifications: Sorghum bicolor
B6: AlGH3-12: GH3 protein, accession XP_002871561 (protein, listed as Arabidopsis lyrata)
chain: MKPISDINESFEKQLKYLTSDVKQIQDNLLEEIITPNTKTEYLQRFLIGRFDKDLFKKNVPIVTYEDIKPYLDRVVNGESSDVISARPITGFLLSSGTSGGAQKMMPWNNKYLDNLTFIYDLRMQVITKHVKGVEEGKGMMFLFTKQESMTPSGLPARVATSSYFKSDYFKHRPSNWYYSYTSPDEVILCPNNTQSLYCHLLCGLVQRDEVVRTGSIFASVMVRAIEVLKNSWEELCSNIRSGHLSNWVTDLGCQSSVSLVLGGPRPELADTIEEICNQKSWKGIVKRLWPNTKYIETVVTGSMGQYVPMLNYYCNDLPLVSTTYGSSETTFGINLDPLCKPEDVSYTFMPNMSYFEFIPMDGDNNDVVDLEDVKLGCTYEPVVTNFAGLYRMRVGDIVLVTGFYNNAPQFKFVRRENVVLSIDSDKTNEEDLFKAVSQAKLVLESSGLDLKDFTSYADTSTFPGHYVVYLEVDTKEGEEKKTAQFELDEEALSMCCLVMEESLDNVYKRCRFKDGSIGPLEIRVVRQGTFISLMDFFISQGASTGQYKTPRCIKSGKALQVLETCVVAKFFSS

Test: LC-MS assay of GH3 conjugation of IAA with Asp or Glu
Format: biochemical
Conditions: IAA with Asp
Experimental: (§1) To detect and monitor the formation of acyl conjugates with 2,4-D or dicamba, a sensitive LC-MS method was developed using the respective amino acid conjugate standards. […] The reaction was performed at 30° C., 105 rpm, for 3 hours in buffer containing 20 mM Tris-HCl (pH 8.0), 5 mM MgCl2, 5 mM auxin (IAA, 2,4-D or dicamba), 5 mM ATP, 5 mM Asp or Glu, 1 mM DTT and 44 to 164 μg/mL purified GH3 protein in 100 μL reaction. After 3 hours of reaction, 400 μL 100% MeOH was added to the reaction mixture for protein precipitation. The supernatant was diluted 20× in water and then analyzed by LC-MS (AB Sciex 4000 QTrap coupled with Shimadzu Nexera UHPLC) using a Phenomenex Luna 3 μm Phenyl-Hexyl (00B-4256-Y0) column. The concentration of the conjugates was calculated based on the standards. Kinetic parameters were estimated by fitting initial velocity values to the Michaelis-Menten equation.
(§2) The GH3 superfamily conjugase activity analysis of IAA, 2,4-D or dicamba with Asp or Glu was done using LC-MS to analyze the final conjugate products as described in Example 1. Protein sequences of GH3 homologs (Table 3) were obtained from public databases (NCBI, http://www.ncbi.nlm.nih.gov/) by Blast analysis of AtGH3.17 protein sequence (accession # Q9FZ87). Coding sequences were designed for optimal expression in E. coli based on the protein sequences and synthesized. Synthesized coding sequences along with N-term his-tag coding sequences were cloned into a pET24a-based E. coli expression vector. The E. coli expression vectors were transformed into OverExpress C41(DE3) cells (Lucigen) for protein expression. Recombinant E. coli strains were inoculated into 5 ml LB media supplemented with 40 mg/L kanamycin and cultured overnight at 37° C. The overnight culture (0.5 mL) was inoculated into 50 mL LB medium plus 40 mg/L kanamycin and grown at 30° C. until OD600 reached 0.6. The cultures were induced with 0.2 mM IPTG at 16° C., 230 rpm overnight. Cells were harvested by centrifugation at 7,000 rpm for 10 mins. The cell pellet from 50 mL of cell culture was frozen and thawed twice and then lysed in 800 μL lysis buffer A (150 mM NaCl, 50 mM Tris-HCl pH 8.0, 5 mM MgCl2, 10% glycerol) plus 20 mM imidazole, 1 mM DTT, 0.2 mg/ml lysozyme, 1/200 protease inhibitor cocktail (EMD set3, EDTA free) and 1/2000 endonuclease. Lysate was then centrifuged at 13,000 rpm for 30 min at 4° C. Supernatant was loaded onto 200 μL Ni-NTA columns pre-equilibrated with buffer A with 20 mM imidazole at 4° C. Each column was then washed with (1) 2×800 μL of buffer A with 10 mM imidazole, (2) 2×800 μL of buffer A with 20 mM imidazole and (3) 2×200 μL of buffer A with 50 mM imidazole. Protein was eluted with 200 μL of buffer A with 250 mM imidazole. The concentration was measured by Bradford assay. Purified protein was used in conjugation reaction assays as described in example 1.

Row | Molecule | kcat, conjugation of IAA with Asp
1 | B1 | 0.0144 s⁻¹

Same assay, conditions: IAA with Glu

Row | Molecule | kcat, conjugation of IAA with Glu
2 | B1 | 0.241 s⁻¹

Same assay, conditions: conjugation of IAA with Asp by recombinant GH3 protein; IAA-Asp product by LC-MS

Row | Molecule | kcat (hrs−1) IAA-Asp
3 | B2 | 0.000 h⁻¹
4 | B3 | 1.475 h⁻¹
5 | B1 | 51.838 h⁻¹
6 | B4 | 0.000 h⁻¹
7 | B5 | 0.000 h⁻¹

Same assay, conditions: conjugation of IAA with Glu by recombinant GH3 protein; IAA-Glu product by LC-MS

Row | Molecule | kcat (hrs−1) IAA-Glu
8 | B2 | 0.000 h⁻¹
9 | B3 | 1.759 h⁻¹
10 | B1 | 867.723 h⁻¹
11 | B4 | 0.000 h⁻¹
12 | B5 | 0.000 h⁻¹

Same assay, conditions: result in words

Row | Molecule | IAA conjugation activity with Asp or Glu | Conjugation of Glu to IAA
13 | B2 | IAA-inactive | –
14 | B6 | – | can also conjugate Glu to IAA
15 | B3 | can also conjugate IAA to Asp and Glu | –
16 | B4 | IAA-inactive | –
17 | B5 | IAA-inactive | –

Test: LC-MS assay of GH3 conjugation of 2,4-D with Asp or Glu
Format: biochemical
Conditions: conjugation of 2,4-D with Asp by recombinant GH3 protein; 2,4-D-Asp product by LC-MS; 5 mM 2,4-D substrate
Experimental: as §1, §2

Row | Molecule | kcat (hrs−1) 2,4-D-Asp
18 | B2 | 0.000 h⁻¹
19 | B3 | 0.144 h⁻¹
20 | B1 | 0.424 h⁻¹
21 | B4 | 0.000 h⁻¹
22 | B5 | 0.000 h⁻¹

Same assay, conditions: conjugation of 2,4-D with Glu by recombinant GH3 protein; 2,4-D-Glu product by LC-MS; 5 mM 2,4-D substrate

Row | Molecule | kcat (hrs−1) 2,4-D-Glu
23 | B2 | 0.000 h⁻¹
24 | B3 | 0.739 h⁻¹
25 | B1 | 0.988 h⁻¹
26 | B4 | 0.000 h⁻¹
27 | B5 | 0.000 h⁻¹

Source: US20150351390A1, “COMPOSITIONS AND METHODS FOR AUXIN-ANALOG CONJUGATION” (PIONEER HI-BRED INTERNATIONAL, INC., priority 2012, published 2015)
